Data from PMC5407808.

How the values were obtained:
[1] = target: HexA-6His (Photorhabdus luminescens TT01); assay: SEC + other: dynamic light scattering; gel filtration of purified HexA-6His on a Superdex 200 column; DLS of the HexA peak fraction from gel filtration
[2] = test system: HexA-6His (Photorhabdus luminescens TT01); assay: SPR; conditions: 5' biotin on forward primer (PpcfA-Btn_fwd; position implied); SPR (Biacore T200, streptavidin chip, ~300 RU DNA): HBS-EP+ 10 mM HEPES pH 7.4, 150 mM NaCl, 3 mM EDTA, 0.05% Surfactant P20, 25 C …

Substance: HexA-6His (natural protein)
- stoichiometry N [1]: 4

Substance: PpcfA promoter fragment (400 bp)
- Kd [2]: 1.3 µM
